Results from patent US20230406961A1 (published 2023).
Each block holds one binder with its values, some of them ahead of it.

Key:
Assay in all cases: SPR (Biacore)
endoglin (CD105) = target: T1, endoglin (CD105) (UniProt P17813 26-586)
T1 chain: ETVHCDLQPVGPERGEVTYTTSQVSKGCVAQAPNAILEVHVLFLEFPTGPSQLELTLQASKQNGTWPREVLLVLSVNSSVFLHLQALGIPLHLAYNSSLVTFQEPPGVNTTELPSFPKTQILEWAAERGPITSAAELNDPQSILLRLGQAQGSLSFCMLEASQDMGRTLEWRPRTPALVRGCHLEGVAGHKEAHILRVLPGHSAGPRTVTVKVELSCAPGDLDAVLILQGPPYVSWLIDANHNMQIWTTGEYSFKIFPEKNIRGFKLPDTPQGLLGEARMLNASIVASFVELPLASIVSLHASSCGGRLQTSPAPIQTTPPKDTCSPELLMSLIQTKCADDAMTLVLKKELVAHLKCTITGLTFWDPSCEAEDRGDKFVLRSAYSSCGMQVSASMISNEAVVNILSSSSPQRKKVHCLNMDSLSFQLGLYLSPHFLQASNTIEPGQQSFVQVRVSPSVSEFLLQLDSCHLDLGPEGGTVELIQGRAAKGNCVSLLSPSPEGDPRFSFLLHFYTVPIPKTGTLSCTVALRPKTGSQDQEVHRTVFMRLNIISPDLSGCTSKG

Endoglin_10 = target: Endoglin_10
Endoglin_23 = target: Endoglin_23

- Kd (endoglin (CD105)): 2.44 nM
B1: endoglin antibody clone Kro22 (humanized AB clone Kro22.2 / Kro22.6) (antibody, V domains shown)
VH: QVQLVQSGAEVKKPGASVKVSCKASGYTFTSYWMHWVRQAPGQGLEWIGNIYPGSGSTFYDEKFKGRATLTVDTSISTAYMELSRLRSDDTAVYYCTRRNYVTGFDYWGQGTTVTVSS
VL: DIQLTQSPSFLSASVGDRVTITCKSSQSVLYSSNQKNYLAWYQQKPGKAPKLLIYWASTRESGVPSRFSGSGSGTEFTLTISSLQPEDFATYYCHQYLSSYTFGQGTKLEIK

- Kd (Endoglin_10): 23.5 nM
- Kd (Endoglin_23): 64 nM
B2: Endoglin (receptor)
chain: T1 chain
